The values that follow are results of earlier work, collected in PMC4223872.

The series addresses Calmodulin C-lobe (Homo sapiens) (UniProt P0DP23). Nature of the series: ITC. In general terms: In ITC the heat of successive injections is recorded.

pKd: −log10 of the molar value.

Chain of Nav1.5 1489-1522 (Q14524 1489-1522): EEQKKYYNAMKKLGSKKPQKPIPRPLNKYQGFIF

Broadly, the pKd is the Kd on a negative log10 scale, so that one unit is a factor of ten. On to Nav1.5 1489-1522 (from UniProt Q14524), for which the pKd is 4.72.
